The results in this text go back to the FLAb antibody collection (doi:10.1101/2023.12.08.570889).

To fix the notation:
B1: unnamed (protein)
chain 1: QMQLVESGGGVVQPGRSLRLSCAASGFTFSTYAMHWVRQAPGKGLEWVAVIWYDGSNKHYADSVKGRFTITRDNSKNTLNLQMNSLRAEDTAVYYCARAPRYDDLYEAFDVWGQGTMVTVSS
chain 2: SYVLTQPPSVSVAPGQTARITCGGNNLGSKSVHWYQQKPGQAPVLVVYDDSDRPSWIPERFSGSNSGNTATLTISRGEAGDEADYYCQVWDSSSDHVVFGGGTKLTVL
B2: unnamed (protein)
chain 1: QMQLVESGGGVVQPGRSLRLSCAASGFTFSTYAMHWVRQAPGKGLEWVAVIWYDGSNKHYADSVKGRFTITRDNSKNTLNLQMNSLRAEDTAVYYCARAPRYDDAYEAFDVWGQGTMVTVSS
chain 2: SYVLTQPPSVSVAPGQTARITCGGNNLGSKSVHWYQQKPGQAPVLVVYDDSDRPSWIPERFSGSNSGNTATLTISRGEAGDEADYYCQVWDSSSDHVVFGGGTKLTVL
B3: unnamed (protein)
chain 1: QMQLVESGGGVVQPGRSLRLSCAASGFTFSTYAMHWVRQAPGKGLEWVAVIWYDGSNKHYADSVKGRFTITRDNSKNTLNLQMNSLRAEDTAVYYCARAPRYDDYLEAFDVWGQGTMVTVSS
chain 2: SYVLTQPPSVSVAPGQTARITCGGNNLGSKSVHWYQQKPGQAPVLVVYDDSDRPSWIPERFSGSNSGNTATLTISRGEAGDEADYYCQVWDSSSDHVVFGGGTKLTVL
B4: unnamed (protein)
chain 1: QMQLVESGGGVVQPGRSLRLSCAASGFTFSSFAMHWVRQAPGKGLEWVAVIWYDGSNKHYADSVKGRFTITRDNSKNTLNLQMNSLRAEDTAVYYCARAPRYDDYYEAFDVWGQGTMVTVSS
chain 2: SYVLTQPPSVSVAPGQTARITCGGNNLGSKSVHWYQQKPGQAPVLVVYDDSDRPSWIPERFSGSNSGNTATLTISRGEAGDEADYYCQVWDSSSDHVVFGGGTKLTVL
B5: unnamed (protein)
chain 1: QMQLVESGGGVVQPGRSLRLSCAASGFTFSTFAMHWVRQAPGKGLEWVAVIWYDGSNKHYADSVKGRFTITRDNSKNTLNLQMNSLRAEDTAVYYCARAPRYDDYLEAFDVWGQGTMVTVSS
chain 2: SYVLTQPPSVSVAPGQTARITCGGNNLGSKSVHWYQQKPGQAPVLVVYDDSDRPSWIPERFSGSNSGNTATLTISRGEAGDEADYYCQVWDSSSDHVVFGGGTKLTVL
B6: unnamed (protein)
chain 1: QMQLVESGGGVVQPGRSLRLSCAASGFTFSTFAMHWVRQAPGKGLEWVAVIWYDGSNKHYADSVKGRFTITRDNSKNTLNLQMNSLRAEDTAVYYCARSPRYDDYYEAFDVWGQGTMVTVSS
chain 2: SYVLTQPPSVSVAPGQTARITCGGNNLGSKSVHWYQQKPGQAPVLVVYDDSDRPSWIPERFSGSNSGNTATLTISRGEAGDEADYYCQVWDSSSDHVVFGGGTKLTVL
B7: unnamed (protein)
chain 1: QMQLVESGGGVVQPGRSLRLSCAASGFTFSTFAMHWVRQAPGKGLEWVAVIWYDGSNKHYADSVKGRFTITRDNSKNTLNLQMNSLRAEDTAVYYCARAPRYDDEYEAFDVWGQGTMVTVSS
chain 2: SYVLTQPPSVSVAPGQTARITCGGNNLGSKSVHWYQQKPGQAPVLVVYDDSDRPSWIPERFSGSNSGNTATLTISRGEAGDEADYYCQVWDSSSDHVVFGGGTKLTVL
B8: unnamed (protein)
chain 1: QMQLVESGGGVVQPGRSLRLSCAASGFTFSTYAMHWVRQAPGKGLEWVAVIWYDGSNKHYADSVKGRFTITRDNSKNTLNLQMNSLRAEDTAVYYCARAPRYDEDYEAFDVWGQGTMVTVSS
chain 2: SYVLTQPPSVSVAPGQTARITCGGNNLGSKSVHWYQQKPGQAPVLVVYDDSDRPSWIPERFSGSNSGNTATLTISRGEAGDEADYYCQVWDSSSDHVVFGGGTKLTVL
B9: unnamed (protein)
chain 1: QMQLVESGGGVVQPGRSLRLSCAASGFTFSTYAMHWVRQAPGKGLEWVAVIWYDGSNKHYADSVKGRFTITRDNSKNTLNLQMNSLRAEDTAVYYCARAPRYDYYWEAFDVWGQGTMVTVSS
chain 2: SYVLTQPPSVSVAPGQTARITCGGNNLGSKSVHWYQQKPGQAPVLVVYDDSDRPSWIPERFSGSNSGNTATLTISRGEAGDEADYYCQVWDSSSDHVVFGGGTKLTVL
B10: unnamed (protein)
chain 1: QMQLVESGGGVVQPGRSLRLSCAASGFTFSSYAMHWVRQAPGKGLEWVAVIWYDGSNKHYADSVKGRFTITRDNSKNTLNLQMNSLRAEDTAVYYCARAPRYDDYYEAFDVWGQGTMVTVSS
chain 2: SYVLTQPPSVSVAPGQTARITCGGNNLGSKSVHWYQQKPGQAPVLVVYDDSDRPSWIPERFSGSNSGNTATLTISRGEAGDEADYYCQVWDSSSDHVVFGGGTKLTVL
B11: unnamed (protein)
chain 1: QMQLVESGGGVVQPGRSLRLSCAASGFTFSTYAMHWVRQAPGKGLEWVAVIWYDGSNKHYADSVKGRFTITRDNSKNTLNLQMNSLRAEDTAVYYCARSPRYDWYYEAFDVWGQGTMVTVSS
chain 2: SYVLTQPPSVSVAPGQTARITCGGNNLGSKSVHWYQQKPGQAPVLVVYDDSDRPSWIPERFSGSNSGNTATLTISRGEAGDEADYYCQVWDSSSDHVVFGGGTKLTVL
B12: unnamed (protein)
chain 1: QMQLVESGGGVVQPGRSLRLSCAASGFTFSTFAMHWVRQAPGKGLEWVAVIWYDGSNKHYADSVKGRFTITRDNSKNTLNLQMNSLRAEDTAVYYCARAPRYDEYVEAFDVWGQGTMVTVSS
chain 2: SYVLTQPPSVSVAPGQTARITCGGNNLGSKSVHWYQQKPGQAPVLVVYDDSDRPSWIPERFSGSNSGNTATLTISRGEAGDEADYYCQVWDSSSDHVVFGGGTKLTVL
B13: unnamed (protein)
chain 1: QMQLVESGGGVVQPGRSLRLSCAASGFTFSTYAMHWVRQAPGKGLEWVAVIWYDGSNKHYADSVKGRFTITRDNSKNTLNLQMNSLRAEDTAVYYCARAPRYYYYYEAFDVWGQGTMVTVSS
chain 2: SYVLTQPPSVSVAPGQTARITCGGNNLGSKSVHWYQQKPGQAPVLVVYDDSDRPSWIPERFSGSNSGNTATLTISRGEAGDEADYYCQVWDSSSDHVVFGGGTKLTVL
B14: unnamed (protein)
chain 1: QMQLVESGGGVVQPGRSLRLSCAASGFTFSTFAMHWVRQAPGKGLEWVAVIWYDGSNKHYADSVKGRFTITRDNSKNTLNLQMNSLRAEDTAVYYCARAPRYDEEYEAFDVWGQGTMVTVSS
chain 2: SYVLTQPPSVSVAPGQTARITCGGNNLGSKSVHWYQQKPGQAPVLVVYDDSDRPSWIPERFSGSNSGNTATLTISRGEAGDEADYYCQVWDSSSDHVVFGGGTKLTVL
B15: unnamed (protein)
chain 1: QMQLVESGGGVVQPGRSLRLSCAASGFTFSTFAMHWVRQAPGKGLEWVAVIWYDGSNKHYADSVKGRFTITRDNSKNTLNLQMNSLRAEDTAVYYCARAPRYYEYWEAFDVWGQGTMVTVSS
chain 2: SYVLTQPPSVSVAPGQTARITCGGNNLGSKSVHWYQQKPGQAPVLVVYDDSDRPSWIPERFSGSNSGNTATLTISRGEAGDEADYYCQVWDSSSDHVVFGGGTKLTVL
B16: unnamed (protein)
chain 1: QMQLVESGGGVVQPGRSLRLSCAASGFTFSTFAMHWVRQAPGKGLEWVAVIWYDGSNKHYADSVKGRFTITRDNSKNTLNLQMNSLRAEDTAVYYCARSPRYDWYYEAFDVWGQGTMVTVSS
chain 2: SYVLTQPPSVSVAPGQTARITCGGNNLGSKSVHWYQQKPGQAPVLVVYDDSDRPSWIPERFSGSNSGNTATLTISRGEAGDEADYYCQVWDSSSDHVVFGGGTKLTVL
B17: unnamed (protein)
chain 1: QMQLVESGGGVVQPGRSLRLSCAASGFTFSTFAMHWVRQAPGKGLEWVAVIWYDGSNKHYADSVKGRFTITRDNSKNTLNLQMNSLRAEDTAVYYCARSPRYDEYWEAFDVWGQGTMVTVSS
chain 2: SYVLTQPPSVSVAPGQTARITCGGNNLGSKSVHWYQQKPGQAPVLVVYDDSDRPSWIPERFSGSNSGNTATLTISRGEAGDEADYYCQVWDSSSDHVVFGGGTKLTVL
B18: unnamed (protein)
chain 1: QMQLVESGGGVVQPGRSLRLSCAASGFTFSTFAMHWVRQAPGKGLEWVAVIWYDGSNKHYADSVKGRFTITRDNSKNTLNLQMNSLRAEDTAVYYCARAPRYDEDYEAFDVWGQGTMVTVSS
chain 2: SYVLTQPPSVSVAPGQTARITCGGNNLGSKSVHWYQQKPGQAPVLVVYDDSDRPSWIPERFSGSNSGNTATLTISRGEAGDEADYYCQVWDSSSDHVVFGGGTKLTVL
B19: unnamed (protein)
chain 1: QMQLVESGGGVVQPGRSLRLSCAASGFTFSTFAMHWVRQAPGKGLEWVAVIWYDGSNKHYADSVKGRFTITRDNSKNTLNLQMNSLRAEDTAVYYCARSPRYDEYLEAFDVWGQGTMVTVSS
chain 2: SYVLTQPPSVSVAPGQTARITCGGNNLGSKSVHWYQQKPGQAPVLVVYDDSDRPSWIPERFSGSNSGNTATLTISRGEAGDEADYYCQVWDSSSDHVVFGGGTKLTVL

In the test the target is TSLP, Q969D9. The test can be described thus: Kd (SPR).
What is called Kd is the concentration at which binding is half-saturated. For B1, the Kd was 0.188 µM.

B2 returned a Kd of 0.37 µM. Then B3, with 0.152 µM. Molecule B4 yielded a Kd of 0.136 µM. Molecule B5 showed a Kd of 0.159 µM. B6 registered a Kd of 0.172 µM.

With B7, the Kd is 0.18 µM.

Take B8: the Kd amounted to 0.184 µM. For B9, the Kd was 0.151 µM.

Molecule B10 displayed a Kd of 0.153 µM. B11 gave a Kd of 0.0963 µM. To B12 belongs 0.129 µM; to B13, 0.152 µM. Then B14, with 0.24 µM.

With B15, the Kd was 0.19 µM. Then B16, with 0.126 µM; and B17, with 0.0316 µM. Then B18, with 0.148 µM. To B19 belongs 0.117 µM.
